The values that follow come from doi:10.1101/2022.09.30.510402.

The experiment concerns the target modified αM subunit in which the αMI-domain was deleted (I-less form of Mac-1) (human) (UniProt P11215). As to the kind of experiment: co-IP.

Chain of CD47 (Q08722 19-323): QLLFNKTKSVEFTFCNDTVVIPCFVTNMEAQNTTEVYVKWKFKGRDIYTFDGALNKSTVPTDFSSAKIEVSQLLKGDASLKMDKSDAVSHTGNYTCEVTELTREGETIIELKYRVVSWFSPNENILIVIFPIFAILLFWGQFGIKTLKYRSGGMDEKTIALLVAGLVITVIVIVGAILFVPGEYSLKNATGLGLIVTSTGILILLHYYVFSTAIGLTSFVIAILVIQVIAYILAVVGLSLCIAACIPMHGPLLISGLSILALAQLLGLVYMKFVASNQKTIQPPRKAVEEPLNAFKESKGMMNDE

“CD47 (from UniProt Q08722 19-323) (natural protein)” returned a fold more CD47 bound than by the whole integrin of 1.5.
